Abundance fitness data for 34 variants are collected here from the Human Domainome abundance scans (Beltran et al. 2025).

± gives the uncertainty stated by the source.

B1: Segment polarity protein dishevelled homolog DVL-3, residues 2 to 81; numbered along this chain, Q92997 (parent)
chain: GETKIIYHLDGQETPYLVKLPLPAERVTLADFKGVLQRPSYKFFFKSMDDDFGVVKEEISDDNAKLPCFNGRVVSWLVSA

The variants in the data set derive from B1. Description: abundance fitness (aPCA) (normalised: wild type 0, dead -1); higher = more abundant; growth selection in yeast, the domain comes from the species named. Conditions: Homo sapiens.
With GETKIIYHLDGQETPYLVKLPLPAERVTLADFKGVLQRPSYKFFFKSMDDDYGVVKEEISDDNAKLPCFNGRVVSWLVSA, the abundance fitness is -0.063 ± 0.082. Regarding GETKIIYHLDGQETPYLVKLPLPAERVTLADFKGVLQRPSYKFFFKSMDDDTGVVKEEISDDNAKLPCFNGRVVSWLVSA, the abundance fitness amounted to 0.183 ± 0.048. The figure for GETKIIYHLDGQETPYLVKLPLPAERVTLADFKGVLQRPSYKFFFKSMDDDVGVVKEEISDDNAKLPCFNGRVVSWLVSA is 0.048 ± 0.061; for GETKIIYHLDGQETPYLVKLPLPAERVTLADFKGVLQRPSYKFFFKSMDDDFKVVKEEISDDNAKLPCFNGRVVSWLVSA it is 0.482 ± 0.052; for GETKIIYHLDGQETPYLVKLPLPAERVTLADFKGVLQRPSYKFFFKSMDDDFTVVKEEISDDNAKLPCFNGRVVSWLVSA it is 0.092 ± 0.058.

GETKIIYHLDGQETPYLVKLPLPAERVTLADFKGVLQRPSYKFFFKSMDDDFVVVKEEISDDNAKLPCFNGRVVSWLVSA: the abundance fitness was -0.005 ± 0.046. As to GETKIIYHLDGQETPYLVKLPLPAERVTLADFKGVLQRPSYKFFFKSMDDDFAVVKEEISDDNAKLPCFNGRVVSWLVSA, the abundance fitness came to 0.096 ± 0.042. For the variant GETKIIYHLDGQETPYLVKLPLPAERVTLADFKGVLQRPSYKFFFKSMDDDFFVVKEEISDDNAKLPCFNGRVVSWLVSA, the abundance fitness was -0.362 ± 0.12. The figure for GETKIIYHLDGQETPYLVKLPLPAERVTLADFKGVLQRPSYKFFFKSMDDDFWVVKEEISDDNAKLPCFNGRVVSWLVSA is -0.458 ± 0.085. The figure for GETKIIYHLDGQETPYLVKLPLPAERVTLADFKGVLQRPSYKFFFKSMDDDFRVVKEEISDDNAKLPCFNGRVVSWLVSA is 0.382 ± 0.036; for GETKIIYHLDGQETPYLVKLPLPAERVTLADFKGVLQRPSYKFFFKSMDDDFPVVKEEISDDNAKLPCFNGRVVSWLVSA it is -0.211 ± 0.071. As for GETKIIYHLDGQETPYLVKLPLPAERVTLADFKGVLQRPSYKFFFKSMDDDFNVVKEEISDDNAKLPCFNGRVVSWLVSA, the abundance fitness amounted to 0.563 ± 0.093. The figure for GETKIIYHLDGQETPYLVKLPLPAERVTLADFKGVLQRPSYKFFFKSMDDDFEVVKEEISDDNAKLPCFNGRVVSWLVSA is 0.209 ± 0.051. For the variant GETKIIYHLDGQETPYLVKLPLPAERVTLADFKGVLQRPSYKFFFKSMDDDFHVVKEEISDDNAKLPCFNGRVVSWLVSA, the abundance fitness amounted to 0.358 ± 0.1. The figure for GETKIIYHLDGQETPYLVKLPLPAERVTLADFKGVLQRPSYKFFFKSMDDDFIVVKEEISDDNAKLPCFNGRVVSWLVSA is -0.501 ± 0.19.

As for GETKIIYHLDGQETPYLVKLPLPAERVTLADFKGVLQRPSYKFFFKSMDDDFQVVKEEISDDNAKLPCFNGRVVSWLVSA, the abundance fitness was found to be 0.327 ± 0.055.

With GETKIIYHLDGQETPYLVKLPLPAERVTLADFKGVLQRPSYKFFFKSMDDDFYVVKEEISDDNAKLPCFNGRVVSWLVSA, the abundance fitness was found to be 0.223 ± 0.14. The figure for GETKIIYHLDGQETPYLVKLPLPAERVTLADFKGVLQRPSYKFFFKSMDDDFSVVKEEISDDNAKLPCFNGRVVSWLVSA is 0.153 ± 0.05.

As for GETKIIYHLDGQETPYLVKLPLPAERVTLADFKGVLQRPSYKFFFKSMDDDFMVVKEEISDDNAKLPCFNGRVVSWLVSA, the abundance fitness was -0.032 ± 0.069.

With GETKIIYHLDGQETPYLVKLPLPAERVTLADFKGVLQRPSYKFFFKSMDDDFCVVKEEISDDNAKLPCFNGRVVSWLVSA, the abundance fitness is 0.2 ± 0.065. With GETKIIYHLDGQETPYLVKLPLPAERVTLADFKGVLQRPSYKFFFKSMDDDFLVVKEEISDDNAKLPCFNGRVVSWLVSA, the abundance fitness is -0.321 ± 0.058.

As for GETKIIYHLDGQETPYLVKLPLPAERVTLADFKGVLQRPSYKFFFKSMDDDFGVQKEEISDDNAKLPCFNGRVVSWLVSA, the abundance fitness came out at 0.106 ± 0.06. The figure for GETKIIYHLDGQETPYLVKLPLPAERVTLADFKGVLQRPSYKFFFKSMDDDFGVTKEEISDDNAKLPCFNGRVVSWLVSA is 0.195 ± 0.056; for GETKIIYHLDGQETPYLVKLPLPAERVTLADFKGVLQRPSYKFFFKSMDDDFGVRKEEISDDNAKLPCFNGRVVSWLVSA it is 0.225 ± 0.036.

On to GETKIIYHLDGQETPYLVKLPLPAERVTLADFKGVLQRPSYKFFFKSMDDDFGVDKEEISDDNAKLPCFNGRVVSWLVSA, for which the abundance fitness is -0.259 ± 0.12.

Regarding GETKIIYHLDGQETPYLVKLPLPAERVTLADFKGVLQRPSYKFFFKSMDDDFGVPKEEISDDNAKLPCFNGRVVSWLVSA, the abundance fitness is -0.895 ± 0.14.

In the case of GETKIIYHLDGQETPYLVKLPLPAERVTLADFKGVLQRPSYKFFFKSMDDDFGVWKEEISDDNAKLPCFNGRVVSWLVSA, the abundance fitness is -0.189 ± 0.061. On to GETKIIYHLDGQETPYLVKLPLPAERVTLADFKGVLQRPSYKFFFKSMDDDFGVGKEEISDDNAKLPCFNGRVVSWLVSA, for which the abundance fitness is -0.335 ± 0.046. GETKIIYHLDGQETPYLVKLPLPAERVTLADFKGVLQRPSYKFFFKSMDDDFGVYKEEISDDNAKLPCFNGRVVSWLVSA: the abundance fitness worked out at 0.2 ± 0.08. The figure for GETKIIYHLDGQETPYLVKLPLPAERVTLADFKGVLQRPSYKFFFKSMDDDFGVAKEEISDDNAKLPCFNGRVVSWLVSA is -0.212 ± 0.058; for GETKIIYHLDGQETPYLVKLPLPAERVTLADFKGVLQRPSYKFFFKSMDDDFGVIKEEISDDNAKLPCFNGRVVSWLVSA it is 0.151 ± 0.07; for GETKIIYHLDGQETPYLVKLPLPAERVTLADFKGVLQRPSYKFFFKSMDDDFGVFKEEISDDNAKLPCFNGRVVSWLVSA it is 0.204 ± 0.083.

Regarding GETKIIYHLDGQETPYLVKLPLPAERVTLADFKGVLQRPSYKFFFKSMDDDFGVSKEEISDDNAKLPCFNGRVVSWLVSA, the abundance fitness was -0.148 ± 0.054. The figure for GETKIIYHLDGQETPYLVKLPLPAERVTLADFKGVLQRPSYKFFFKSMDDDFGVLKEEISDDNAKLPCFNGRVVSWLVSA is -0.21 ± 0.055.
